# In patent US20170182124A1, “FGF21 Derivatives and Uses Thereof” (Novo Nordisk A/S, priority 2014, published 2017):
# Where a chain is given by its changes, count along the chain named. Where two headings read alike, the source gives them in different places.
# B1: Ala[Gln121, Cys168]FGF21 (protein)
# chain: AHPIPDSSPLLQFGGQVRQRYLYTDDAQQTEAHLEIREDGTVGGAADQSPESLLQLKALKPGVIQILGVKTSRFLCQRPDGALYGSLHFDPEACSFRELLLEDGYNVYQSEAHGLPLHLPGQKSPHRDPAPRGPARFLPLPGLPPALPEPPGILAPQPPDVGSSDPLSCVGPSQGRSPSYAS
# modifications: N-terminal Ala
# B2: Ala[Gln121, Leu168, Cys170]FGF21 (protein)
# chain: B1 chain with C169L, G171C
# modifications: N-terminal Ala
# B3: Ala[Gln121, Leu168, Cys171]FGF21 (protein)
# chain: B1 chain with C169L, S173C
# modifications: N-terminal Ala
# notes: FGF21 analogue
# B4: Ala[Gln121, Leu168, Cys173]FGF21 (protein)
# chain: B1 chain with C169L, G175C
# modifications: N-terminal Ala
# notes: FGF21 analogue
# B5: Ala[Gln121, Leu168, Cys172]FGF21 (protein)
# chain: B1 chain with C169L, Q174C
# modifications: N-terminal Ala
# notes: FGF21 analogue
# B6: Ala[Gln121, Leu168, Cys174]FGF21 (protein)
# chain: B1 chain with C169L, R176C
# modifications: N-terminal Ala
# notes: FGF21 analogue
# B7: Ala[Gln121, Leu168, Cys169]FGF21 (protein)
# chain: B1 chain with C169L, V170C
# modifications: N-terminal Ala
# B8: Ala[Gln121, Cys167, Leu168,]FGF21 (protein)
# chain: B1 chain with S168C, C169L
# modifications: N-terminal Ala
# B9: Ala[Gln121, Leu168, Cys177]FGF21 (protein)
# chain: B1 chain with C169L, P178C
# modifications: N-terminal Ala
# B10: Ala[Gln121, Leu168, Cys175]FGF21 (protein)
# chain: HPIPDSSPLLQFGGQVRQRYLYTDDAQQTEAHLEIREDGTVGGAADQSPESLLQLKALKPGVIQILGVKTSRFLCQRPDGALYGSLHFDPEACSFRELLLEDGYNVYQSEAHGLPLHLPGQKSPHRDPAPRGPARFLPLPGLPPALPEPPGILAPQPPDVGSSDPLSLVGPSQGCSPSYAS
# notes: FGF21 analogue
# B11: 18-[[(1S)-4-[2-[2-[2-[2-[2-[2-(2-acetamidoethylamino)-2-oxo-ethoxy]ethoxy]ethylamino]-2-oxo-ethoxy]ethoxy]ethylamino]-1-carboxy-4-oxo-butyl]amino]-18-oxo-octadecanoic … (protein)
# chain: B10 chain with G170C, C175R
# B12: 18-[[(1S)-4-[2-[2-[2-[2-[2-[2-(2-acetamidoethylamino)-2-oxo-ethoxy]ethoxy]ethylamino]-2-oxo-ethoxy]ethoxy]ethylamino]-1-carboxy-4-oxo-butyl]amino]-18-oxo-octadecanoic … (protein)
# chain: B10 chain with G174C, C175R
# B13: S{Beta-169}-[2-[2-[[2-[2-[2-[[2-[2-[2-[[(4S)-4-carboxy-4-(15-carboxypentadecanoyl-amino)butanoyl]amino]ethoxy]ethoxy]acetyl]amino]ethoxy]ethoxy]acetyl]amino]-ethylamino]-2-oxoethyl]-Ala[Gln121,Leu168, … (protein)
# chain: B10 chain with V169C, C175R
# B14: S{Beta-173}-[2-[2-[[2-[2-[2-[[2-[2-[2-[[(4S)-4-carboxy-4-(15-carboxypentadecanoyl-amino)butanoyl]amino]ethoxy]ethoxy]acetyl]amino]ethoxy]ethoxy]acetyl]amino]-ethylamino]-2-oxoethyl]-Ala[Gln121,Leu168, … (protein)
# chain: B10 chain with Q173C, C175R
# B15: 4-[10-[[4-[2-[2-[2-[2-[2-[2-[[(1S)-5-acetamido-1-carboxy-pentyl]amino]-2-oxo-ethoxy]ethoxy]ethylamino]-2-oxo-ethoxy]ethoxy]ethylamino]-4-oxo-butyl]sulfonylamino]-10-oxo-decoxy]benzoic … (protein)
# chain: B10 chain with C175R, A180C
# B16: 16-[[(1S)-4-[2-[2-[2-[2-[2-[2-(2-acetamidoethylamino)-2-oxo-ethoxy]ethoxy]ethylamino]-2-oxo-ethoxy]ethoxy]ethylamino]-1-carboxy-4-oxo-butyl]amino]-16-oxo-hexadecanoic … (protein)
# chain: B10 chain with G174C, C175R
# B17: S{Beta-174}-[2-[2-[[2-[2-[2-[[2-[2-[2-[[(4S)-4-carboxy-4-(13-carboxytridecanoyl-amino)butanoyl]amino]ethoxy]ethoxy]acetyl]amino]ethoxy]ethoxy]acetyl]amino]-ethylamino]-2-oxoethyl]-Ala[Gln121,Leu168,Cy … (protein)
# chain: B10 chain with G174C, C175R
# B18: S{Beta-175}-[2-[2-[[2-[2-[2-[[2-[2-[2-[[(4S)-4-carboxy-4-(15-carboxypentadecanoyl-amino)butanoyl]amino]ethoxy]ethoxy]acetyl]amino]ethoxy]ethoxy]acetyl]amino]-ethylamino]-2-oxoethyl]-Ala[Gln121,Leu168, … (protein)
# chain: B10 chain
# B19: S{Beta-176}-[2-[2-[[2-[2-[2-[[2-[2-[2-[[(4S)-4-carboxy-4-(15-carboxypentadecanoyl-amino)butanoyl]amino]ethoxy]ethoxy]acetyl]amino]ethoxy]ethoxy]acetyl]amino]-ethylamino]-2-oxoethyl]-Ala[Gln121,Leu168, … (protein)
# chain: B10 chain with C175R, S176C
# Target: FGF receptor/BKL complex
# Experiment: FGF receptor potency in an Erk phosphorylation assay in HEK293 overexpressing human BKL
# Format: cell-based
# Settings: for EC50: HEK293/BKL cells, pERK after 12 minutes
# Procedure: In order to test the binding of the FGF21 derivatives to albumin, the assay was performed in the absence of serum albumin as well as in the presence of human serum albumin (HSA) (0.1% final assay concentration). An increase in EC50 value (decrease in potency) in the presence of serum albumin for FGF21 derivatives would indicate binding to serum albumin and represents a method to predict a protracted pharmacokinetic profile of the test substance in animal models. MetFGF21 (SEQ ID NO:2) is included for reference.
# HEK293 cells endogenously express several FGF receptors, including FGFR1c, FGFR3c and FGFR4. These cells are unresponsive to FGF21 until transfected with the co-receptor beta-klotho (BKL). Activation of the FGF receptor/BKL complex leads to activation of the MAPK/ERK signalling pathway and phosphorylation of ERK. The level of phosphorylated ERK (pERK) at a given time point increases with increasing concentrations of FGF21. As described below the level of pERK is measured after 12 minutes of stimulation with a range of FGF21 analogue concentrations.
# The HEK293/beta-klotho cells are seeded with 30.000 cells/well in 96 well plates in DMEM (BioWhittaker #BE12-604F/U1), supplemented with 10% FCS (Gibco #16140-071), 1% penicillin/streptomycin (Gibco #15140), 100 µg/ml Hygromycin B, (Calbiochem, # 400052). Two days later and 2 hours before addition of compound the cell medium is exchanged with 100 ∞l basal medium (DMEM (BioWhittaker #BE12-604F/U1)). The FGF21 analogues are diluted in assay medium (DMEM (BioWhittaker #BE12-604F/U1) supplemented with 0.02% Tween20), warmed to 37° C., added to the cells (100 μl) and incubated at 37° C. for 12 minutes. The FGF21 derivatives were also tested in the presence of 0.1% HSA (Sigma—A1887). All medium is quickly removed and 50 μl lysis buffer is added pr. well. The plate is shaken for 5 minutes and the lysate is ready for measurement of pERK. pERK is measured in 384 well plates with the AlphaScreen SureFire kit (PerkinElmer #TGRES10K). This kit is based on ERK and pERK specific antibodies coupled to donor and acceptor beads. The presence of pERK will bring acceptor and donor beads in close proximity and a signal is generated that is read on EnVision. The data are analysed using GraphPad Prism and the potency of the FGF21 proteins is described as absolute EC50 value.
# [1] = presence of 0.1% HSA, read-out: EC50 (0.1% HSA)
# FGF receptor/BKL complex, sequence (Q86Z14 whole entry, one chain of several): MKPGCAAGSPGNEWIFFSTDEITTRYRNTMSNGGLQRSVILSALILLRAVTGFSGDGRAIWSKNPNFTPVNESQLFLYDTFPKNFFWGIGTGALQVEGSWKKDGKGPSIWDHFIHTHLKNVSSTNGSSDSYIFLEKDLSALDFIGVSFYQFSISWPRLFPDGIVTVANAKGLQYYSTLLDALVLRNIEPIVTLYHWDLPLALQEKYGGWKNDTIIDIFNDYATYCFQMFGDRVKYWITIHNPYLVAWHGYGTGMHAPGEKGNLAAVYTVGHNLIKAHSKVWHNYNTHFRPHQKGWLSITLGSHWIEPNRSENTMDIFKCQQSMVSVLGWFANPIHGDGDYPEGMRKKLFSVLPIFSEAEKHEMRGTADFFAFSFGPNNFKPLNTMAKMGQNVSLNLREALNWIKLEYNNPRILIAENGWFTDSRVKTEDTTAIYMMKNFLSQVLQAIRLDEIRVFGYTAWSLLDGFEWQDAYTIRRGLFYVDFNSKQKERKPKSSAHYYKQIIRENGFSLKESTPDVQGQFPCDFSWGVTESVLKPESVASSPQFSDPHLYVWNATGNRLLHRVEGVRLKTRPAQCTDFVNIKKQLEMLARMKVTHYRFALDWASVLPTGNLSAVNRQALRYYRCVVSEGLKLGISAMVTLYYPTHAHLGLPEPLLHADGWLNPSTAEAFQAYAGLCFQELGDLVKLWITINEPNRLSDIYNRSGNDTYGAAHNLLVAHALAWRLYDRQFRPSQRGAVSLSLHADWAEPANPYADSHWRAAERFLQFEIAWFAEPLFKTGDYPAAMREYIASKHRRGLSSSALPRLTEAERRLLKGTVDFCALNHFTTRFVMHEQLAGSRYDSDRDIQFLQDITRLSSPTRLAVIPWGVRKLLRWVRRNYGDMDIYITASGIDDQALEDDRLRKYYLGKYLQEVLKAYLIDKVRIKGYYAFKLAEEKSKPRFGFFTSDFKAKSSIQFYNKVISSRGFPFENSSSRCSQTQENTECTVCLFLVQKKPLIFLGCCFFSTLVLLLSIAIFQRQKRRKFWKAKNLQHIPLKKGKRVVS
Molecule,"EC50 (absence of HSA, read-out: EC50) [nM]",EC50 [1] [nM],potency in HEK293/BKL cells compared with MetFGF21 or corresponding analogue (in words) (absence of HSA)
"S{Beta-168}-[2-[2-[[2-[2-[2-[[2-[2-[2-[[(4S)-4-carboxy-4-(13-carboxytridecanoyl-amino)butanoyl]amino]ethoxy]ethoxy]acetyl]amino]ethoxy]ethoxy]acetyl]amino]-ethylamino]-2-oxoethyl]-Ala[Gln121,Cys168]FGF21 [Compound 34]",667,4260,–
B1,492,–,decreased potency
B2,7,–,–
B3,8,–,–
B4,4,–,–
B5,5,–,–
B6,5,–,–
B7,22,–,–
B8,4,–,–
B9,416,–,–
B10,11,–,–
B11,1,20,–
B12,1,1,–
B13,25,20,–
B14,3,4,–
B15,3.2,4,–
B16,2,4,–
B17,4,4,–
B18,1,1,–
B19,214,373,–
